The subject of assay [1] is binary FGFR-Klotho complex. Put plainly: Pull-down / co-precipitation of FGF23 proteins with FGFR-Klotho complex. The assay is classed as binding. The settings on record: HEK293-Klotho cell lysate. As for the experimental part:
A pull-down assay may also be used to confirm the existence of a protein:protein interaction (i.e. FGF23^180-251 binding to the binary FGFR-Klotho complex). One aspect of the present invention utilizes pull-down assays. These assays involved subconfluent cultures of a HEK293 cell line ectopically expressing the FLAG-tagged membrane-spanning form of murine Klotho, which were harvested and lysed. Cell lysate was incubated with FGF23^28-251, FGF23^28-200, FGF23^28-179, FGF23^180-251, or protein sample buffer, and binary complexes of Klotho and endogenous FGFR were isolated from cell lysate using anti-FLAG M2 agarose beads. […]
In parallel, subconfluent HEK293-Klotho cells (Kurosu et al., “Regulation of Fibroblast Growth Factor-23 Signaling by Klotho,” J Biol Chem 281(10):6120-6123 (2006), which is hereby incorporated by reference in its entirety) were transfected with expression vectors for V5-tagged FGFR1c, FGFR3c, or FGFR4 (Kurosu et al., “Regulation of Fibroblast Growth Factor-23 Signaling by Klotho,” J Biol Chem 281(10):6120-6123 (2006), which is hereby incorporated by reference in its entirety) and binding of FGF23 proteins/peptides to Klotho-FGFR complexes isolated from cell lysate was analyzed. […]

Assay [2] deals with tyrosine phosphorylation of FRS2α and downstream activation of MAP kinase cascade. Put plainly: Phosphorylation of FRS2α and 44/42 MAP kinase in CHO Klotho cell line. The assay is classed as cell-based. As to the method:
Subconfluent HEK293-Klotho cells (Kurosu et al., “Regulation of Fibroblast Growth Factor-23 Signaling by Klotho,” J Biol Chem 281(10):6120-6123 (2006), which is hereby incorporated by reference in its entirety) were serum starved for 16 h and then stimulated for 10 min with either FGF23^28-251 (0.33 to 10 nM) or FGF23^180-251 (0.76 to 76.3 nM). In parallel experiments, cells were stimulated with FGF23^28-251 (1 nM) alone or with FGF23^28-251 (1 nM) mixed with increasing concentrations of either FGF23^180-251 (0.76 to 76.3 nM) or FGF23^180-205 (0.1 to 10 μM). Cell stimulation with FGF2 (2.9 nM) alone or FGF2 (2.9 nM) mixed with increasing concentrations of FGF23^180-251 (0.76 to 76.3 nM) served as controls. Similarly, subconfluent cells of a CHO cell line stably expressing Klotho (Imura et al., “Secreted Klotho Protein in Sera and CSF: Implication for Post-translational Cleavage in Release of Klotho Protein from Cell Membrane,” FEBS Lett 565(1-3):143-147 (2004), which is hereby incorporated by reference in its entirety) were treated with either FGF23^28-251 (0.067 to 20 nM) or FGF23^28-200 (0.04 to 12 nM). […]

For another assay, the system named is C57BL/6 mice. The experiment in a line: Serum phosphate in C57BL/6 mice after IP injection. Particulars: two injections of 5 μg, healthy C57BL/6 mice. The assay is classed as in vivo, mouse. As for the experimental part: The phosphaturic activity of […] was examined in ˜6-week old C57BL/6 mice by a published protocol (Goetz et al., “Molecular Insights into the Klotho-dependent, Endocrine Mode of Action of Fibroblast Growth Factor 19 Subfamily Members,” Mol Cell Biol 27(9):3417-3428 (2007), which is hereby incorporated by reference in its entirety). FGF23^28-251, FGF23^28-200, or vehicle were injected IP into the animals. Each mouse received two injections at 8 h intervals, of 5 μg of protein per injection. Before the first injection and 8 h after the second injection, blood was drawn by cheek-pouch bleeding and spun at 3,000×g for 10 min to obtain serum. Serum phosphate levels were determined using Phosphorus Liqui-UV reagent (Stanbio Laboratory).

“Also recorded” adds a separate entry of the source.

Chain of binary FGFR-Klotho complex (O35082 35-1014, one chain of several): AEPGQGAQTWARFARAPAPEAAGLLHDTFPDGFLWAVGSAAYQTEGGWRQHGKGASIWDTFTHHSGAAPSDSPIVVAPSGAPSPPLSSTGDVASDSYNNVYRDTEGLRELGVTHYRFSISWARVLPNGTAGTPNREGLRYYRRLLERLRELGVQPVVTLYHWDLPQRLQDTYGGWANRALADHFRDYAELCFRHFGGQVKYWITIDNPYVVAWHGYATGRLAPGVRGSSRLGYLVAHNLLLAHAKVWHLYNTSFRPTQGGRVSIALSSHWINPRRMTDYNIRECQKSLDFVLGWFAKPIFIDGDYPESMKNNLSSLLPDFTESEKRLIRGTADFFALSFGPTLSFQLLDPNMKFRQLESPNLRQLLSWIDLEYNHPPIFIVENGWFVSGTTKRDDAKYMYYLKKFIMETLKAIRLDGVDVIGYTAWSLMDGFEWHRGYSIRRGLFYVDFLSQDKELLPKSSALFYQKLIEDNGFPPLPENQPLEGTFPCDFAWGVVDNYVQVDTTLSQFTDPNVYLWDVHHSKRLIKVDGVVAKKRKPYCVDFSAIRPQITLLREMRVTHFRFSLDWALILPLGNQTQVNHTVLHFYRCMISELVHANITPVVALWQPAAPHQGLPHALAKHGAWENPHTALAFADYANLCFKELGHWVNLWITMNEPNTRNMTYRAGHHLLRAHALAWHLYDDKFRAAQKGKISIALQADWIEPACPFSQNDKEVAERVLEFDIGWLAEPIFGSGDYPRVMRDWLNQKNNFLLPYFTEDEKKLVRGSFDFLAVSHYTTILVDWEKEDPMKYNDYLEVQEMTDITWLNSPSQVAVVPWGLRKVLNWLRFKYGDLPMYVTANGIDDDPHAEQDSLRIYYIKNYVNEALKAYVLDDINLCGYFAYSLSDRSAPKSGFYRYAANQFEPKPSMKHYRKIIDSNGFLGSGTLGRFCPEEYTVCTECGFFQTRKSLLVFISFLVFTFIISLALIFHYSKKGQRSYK

B1: FGF23^28-200: C-terminally truncated FGF23 protein (A28 to T200), lacks the last 51 C-terminal amino acids (protein)
chain: ASPLLGSSWGGLIHLYTATARNSYHLQIHKNGHVDGAPHQTIYSALMIRSEDAGFVVITGVMSRRYLCMDFRGNIFGSHYFDPENCRFQHQTLENGYDVYHSPQYHFLVSLGRAKRAFLPGMNPPPYSQFLSRRNEIPLIHFNTPIPRQHTQSAEDDSERDPLNVLKPRARMT
As to B1, in assay [1], the “co-precipitation with the binary FGFR-Klotho complex” value is listed as “still retains the ability to co-immunoprecipitate”. For the same molecule, the “induction of phosphorylation of FRS2α and activation of MAP kinase cascade” value in assay [2] is listed as “at a dose comparable to that of FGF23^28-251”. For the same molecule, in the assay on C57BL/6 mice, the “reduction of serum phosphate concentration (phosphaturic activity)” value is on record as “nearly as effective as the full-length ligand; also recorded: exhibits phosphaturic activity”.

(Values after US8889621B2, “Inhibiting binding of FGF23 to the binary FGFR-Klotho complex for the treatment of hypophosphatemia” (New York University, priority 2009, dated 2014).)
